# Assay: yeast display, Sf9 membrane polyspecificity reagent, FACS + sequencing; frameworks hold sequencing errors
# How it was run: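 Genes from sorted yeast were amplified by colony PCR, read by MiSeq 2 × 250 sequencing and filtered on CDR length. These cells carried a synthetic nanobody library in Saccharomyces cerevisiae BJ5465 and were sorted by FACS into low and high (top ~1%) gates on anti-HA and streptavidin fluorescence. Polyreactivity is labelled according to the gate of origin.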
row,Sequence,polyreactivity (PSR sort gate)
1,QVQLVDSGGGLVQAGGSLRLSCAASGITFWDNVMGWYRQATGKERELVATITYRGGSTYADSVKGRFTISRDNAKITVFLQMNSVKPEDTAVYYCNTGVTVDILSYDSWGQGTQVTVSS,low polyreactivity
2,QVQLVESGGGLVQARGSLRLSCAASGTIFASNAMGWLRKAPGKVRELVAAINSGGNTYADSVKGRFTITRDNAKNTVYVHMNSLKPEDTAVYYCAVVWNWCSGLSPGYPEFDYWGQGTQVTVSA,low polyreactivity
3,QVQLVESGGGLVQAGGSLRLRCAASGFISGYNTMGWYRQAAGKEMEFVAAISVSGGRTYYADSVKGRFTFSRDNAKNTVYLQMNSLKPEDTAVYYCAGRYWSWRSFKVDYWGQGTQVTVSS,high polyreactivity
4,QVHLVESGGGLVQAGCSLRLSCAASGSTSASYAMGCDRQAPGKERELVAAISGRGTTTYYADSVKGRFTISRDNAKNTVYLQMNSLKPEDTAVYYCAVYRRGGVEAFLYWGQGTQVTVSS,high polyreactivity
5,QVQLVESGGGLVQAGGSLRLSCAASGFTFFSNAMGWYRQAPGKERELVAAITSSGGSTYADSVKGRFTISRDNAKNTVYLQMNSLKPEDTAVYYCAADAQAPPGGFKEYDYWGQGTQVTVSS,low polyreactivity
6,QVQLVESGGGLVQAGGSLRLSCAASGRTFTLYAMGWYRQAPGKERELVASITSGTRTYYADSVKGRFTISRDNAKNTVYLQMNSLKPEDTAVYYCAKEGYLRTLHRLYDYWGQGTQVTVSS,low polyreactivity
7,QDQLVESGGGLVQAGGSLRLSCAASGITFYRYAMGWYRQAPGKERDLVAAITTSDTSTYYADSVKGRFTISRDNAKNTVYLQMNSLKPEDTAVYYCATDVVNIAPAEYDYWGQGTQVTVSS,low polyreactivity
8,QVQLVESGGGLVQAGGSLRLSCAASGRTFPGYAMGWYRQAPGKARELVAGISYRGGSTYYADSVKGRFTISRDNAKNTVYLQLNSLKPEDTAVYYCARDYSRHKGDYWGQGTQVTVSS,low polyreactivity
9,QVQLVESGGGLVQAGGSLRLSCAASGRIFRRNAMGWYRPAPGKERELVAGITWSGGTTYYADSVKGRFTISRDNAKNTVYLQMNSLKPEDTAVYYCNAGRSKWLSRYDYWGQGTQVTVSS,high polyreactivity
10,QVQLVESGGGLVQAGGSLRLSCAASGRTFKRYAMGWYRQAPGKERELVAAITWSGGNTYYADSVKGRFTISRDNAKNTVYLQINSLKPEDTAVYYCAAKGAGRRYDSWGQGTQVTVSS,high polyreactivity
11,QVQLVESGGGLVQAGGSLRLSCAASGSTFYAYAMGWYRQAPGKERELVAAISSDGTNYADSVKGRFTISRDNAKNTVYLQMNSLKPEDTAVFYCAADLLLYSSQDNDYWGQGTQVTVSS,low polyreactivity
12,QVQLVESGGGLVQAGGSLRLSCAASGSIFYPYAMGWYRQAPGKERELVATISWSGSSTYYADSVKGRVTISRDNAKNTVYSQMNSLKPEDTAVYYCAVRYSVLSNYRYYYWGQGTQVTVSS,low polyreactivity
13,QVQLVESGGCLVQAGGSLRLSCAASGRTFKQYAIGWSRQAPGKERELVAAITSGGSTYYADSVKGRFTISRDNAKNTVSLHMNSLKPEDNAVYYCNKESYFDTYRRYDSWGQCTQVTVSS,low polyreactivity
14,QVQLVESGGGLVQAGGSLRLSCAASGSTFGYYAMGWYRQAPGKERELVATITIGGSTHYADSVKGRFTISRDNAKNTVYLQMNSLKPEDTAVYYCAKRYYTNRHSRAFGFWGQGSQVTVSS,high polyreactivity
15,QVQLVESGGGLVQAGGSLRLSCAASGSTFQLYAMGWYRQAPGKERELVAAISGIGDSTYYADSVKGRFTISRDNAKNTVYLQMNSLKPEDTAVYYCAREFSDGLSGKFDYWGQGTQVTVSS,low polyreactivity
16,QVQLVESGGGLVQAGGSLRLSCAASGYIFSLYGMGWYRQAPGKERELVAAITGSGGGTYADSVKGRFTISRDNAQNTVYLQMKSLKPEDTAVYYCAAGGYRRRFWPIYDYWGQGTQVTVSS,low polyreactivity
17,QVQLEESGGGLVQAGGSLRLSCDASGRIFGGYAMGWYRQAPGKERELVAAISASGGRTYYADSVKGRFTISRDNAKNTVYLQMNSLKPEDTAVYYCAASFRRTSLRWHGEYWGQGTQVTVSS,high polyreactivity
18,QVQLVESGGGLVQAGGSLRLSWAASGSIFSIYAMGWYRQAPGKERDLVASITRSSGRTYYAYSVKGRFTISRDNAKNNVYLQMNSLKPEDTAVYYCAKDYIPLALDADDYCGQGTQVTVSS,low polyreactivity
19,QVQLVESGGGLVQAGGSLRLSCAASGRTFWDYAMGWYRQAPGKERELVAAITGGITNYADSVKGRFTISRDNAKNTVYLQMNSLKPEDTAVYYCAVYYRRWFSRYDYWGQGTQVTVSS,low polyreactivity
20,QVQLVESGGGLVQAGGSLRLSCAASGLTFSKYAMGWYRQAPGKERELVAAINRSDGGTYYADSVKGRFTISRDNAKNTVYLQMNSLKPEDTAVYYCNAVVLYGWYGRRYSSRLDYWGQGTQVTVSS,high polyreactivity
21,QVQRVESGGGLVQAGGSLRLSCAASGNTFWLNAMGWYRQAPGKERELVAAITYTDGSTYADSVKGRFTISRDNAKNTVYLQMNSLKPEDTAVYYCAARYQWDWRDYYYWGQGTQVTVSS,low polyreactivity
22,QVQLVESGGGLVQAGGSLPLSCAASGSTFLAYAMGWYRQAPGKERELVAAITWNSGSSTFYADSVKGRFTISRDNAKNTVYLQMNSLKPEDTAVYYCNADVPSPAYYGDGTPYREDNYWGQGTQVTVSS,low polyreactivity

row,Sequence,polyreactivity (PSR sort gate)
1,QVQLVESGGGLVQAGGSLRLSCAASGHTFRKYAMGWYRQAPGKERELVASITWSDGITYYADSVKGRFTISRDNAKNTVYLQMNSLKPEDTAVYYCATDLVQSEYDYWGQGTQVTVSS,low polyreactivity
2,QVQLVESGGGLVQAGGSLRLSCAASGSIFGIYAMGWYRQAPGKERELVAAIRRGGSTYYADSVKGRFTISRDNAKNTVYLQMNSLKPEDTAVYYCAARKYRLWGKGVDYDYWGQGTQVTVSS,high polyreactivity
3,QVQLVESGGGLVQAGGSLRLSCAASGSIYYHNAMGWYRQAPGKERELVAAITGSGGSTYYADSVKGRFTISRDNAKNTVYLQMNSLKPEDTAVYYCAADGYTKWWISWGYDYWGQGTQVTVSS,low polyreactivity
4,QVQLVESGGGLVQAGGSLRLSCAASGSTLDTNAMGWYRQAPGKERELVAVIDSGGTTNYADSVKGRFTISRDNAKNTVYLQMNSLKPEDTAVYYCAADYAYFGYWFEGYDYWGQGTQVTVSS,low polyreactivity
5,QVQLVESGGGLVQAGGSLRLSCAATGRTFVSNAMGWYRQAPGKERELVAAISSSTGSTYYADSVKGRFTISRDNAKNTVYLQMNSLKPEDTAVYYCAAYLLGRSPYDYWGQGTQVTVSS,low polyreactivity
6,QDQLVESGGGLLQAGGSLRLSCAASGRTFRYYAMGWYRQAPGKERELVAAISWSGSSTYYADSVKGRFTISRDNAKNTVYLQMNSLKAEDTAVYDCNAKGVRGKYFDYSRVSAYDYWGQGTQVTVSS,low polyreactivity
7,QVQLVESGGGLVQAGGSLRLSCAASGRIFVRYAMGWYRQAPGKERELVAAIRWSGGRTYYADSVKGRFTISRDNAKNTFYLQMNSLKPEDTAVYYCAVRYRDLFGYWGQGTQVTVSS,high polyreactivity
8,QVQLVESGGGLVQAGRSLLLICAASGSTFAYYAMGWYRQAPGKERELVAAINYRATRTYYADSVKGRFTISRDNAKNTVYLQMNSLKPDDTAVDYCIAEPAYYRSNRWPRFEYWGQGTQVTVSS,high polyreactivity
9,QVQLVESGGGLVQAGGSLRLSCASSGSTFSRYALGWYRQAPGKERELVAAITSYGGSTYYADSVKGRFTISRDKAKNTFYLQMNSLKPEYTAVYYCAASYQVRYDYWGQGTQVTVSS,high polyreactivity
10,QVQLVESGGGLVQAGGSLRLSCAASGFTFFIYVMGWYRQAPGKEREFVAAISSSGDSTYYADSVKGRFTSSRDNAKNTVYLQMNSLKPEDTAVYYCNAGDKVSSYWYDYWGQGTQVTVSS,low polyreactivity
11,QVQLVESGVGLVQAGGSLRLSCAASGFTIYRYAMGWYRQAPGKERELVAAISRGVNTNYADSVKGRFTISRDNAKNTVYLQMNSLKPEETAVYDCAARYDNPSYRTTYGFWGQGTQVTLSS,high polyreactivity
12,QVQLVESGGGLVQAGGSLRLSCAASGSIFQGNAMGWYRQAPGKERELVAAITYSGGSTYYADSVKGRFTISRDNAKNTVYLQMHSLKREDTAVYYCAAFFPSDLVDGYNYWGQGTQVTVSS,low polyreactivity
13,QVQLVESGGGLVQAGGSLRLSCAASGSTFSDYAMGWYRPEPGQERELVATITSTGDTNYADSVKGRFTISRDNAKNTVYLQMNSLKPEDTAVYYCAAQHKKYGKRGLWNNFGYWGQGTQVSVSS,low polyreactivity
14,QVQLVESGGGLVQAGGSLRLSCAASGRIFGVNAMGWYRQAPGKERELVAGISISGGSTHYADSVKGRFTISRDNAKNTVYLQMNSLKPEDTAVYYCAKRFYKYVSYWHDYWGQGTQVTVSS,low polyreactivity
15,QVQLVESGGGLVQAGGSLRLSCAASGGSFPDNARGWYRQAPGKERELVAAISFSGSSTYADSVKGRFTISRDNAKKTVNLQMNSLKPEDTAVYYCNTDGYIYRYRFDYWGQGTQVTVSS,low polyreactivity
16,QVQLVESGGGLVQAGGSLRLSCASSGLIFKKYTIGWYRQGPGKERELVASISKSGGSTYYADSVKGRFTISRDNAKNTVYLQMNSLNPEDTAVYYCNSVNHYIGFDYWGQGTQVTVSS,low polyreactivity
17,QVQLVESGGCLVQAGGSLRLSCAASGSTFRYNAMGWYRPAPGKERELVAAITSSGGRTYYADSVKGRFTISRDNAKNTVYLQMNSLKPEDTAVYYCARRYLSVRGDSWGQGTQVTVSS,high polyreactivity
18,QVQLVESGGGIFQAGGSLRLSCAASGFTFQYYAMGWYRQAPGKERELVAAISRRGGRTDYADSVKGRFTISRDNAKNTVYLQMNSLKPEDTAVYYCAAAVASPYDYWGLGTQVTVSS,high polyreactivity
19,QVQLVESGGGLVQAGGSLRLSCAASGITFVFYAMGWYRQAPGKERELVATISYRGTSTYYADSVKGRFTISRDNAKNTVYLQMNSLKPEDTAVYYCAADTYIYYKTGYGYWGQGTQVTVSS,low polyreactivity
20,QVHLVESGGGLVQAGGSLRLSCAASGSIFSRNAMGWYRQAPGKERELVAAISRGANTYYADSVKGRFTISRDNAKNTVYLQMNSLKPEDTAVYYCNAGSRSRYEGGYWGQGTQVTVSS,high polyreactivity
21,QVQLVESGGGLVQAGGSLRLSCAASGRTLQTYVMGWYRQAPGKERELVAAITRGGGSTYYADSVKGRFTISRDNGKNTVFLQMNSLKPVDTSVYYCAASALRFNSRFSHWYIYWGQGTQVTVSS,high polyreactivity

# — the nanobody polyreactivity screen of Harvey et al. (2022)
